Consider three molecules from patent US20120058906A1 (published 2012).

Experiment [1] concerns the target T1, Recombinant Human DLL4 (delta-like protein 4) (human, UniProt Q9NR61 27-524).
T1 construct: Bought (R&D Systems Cat#1506-D4/CF); also called rHuman DLL4
The experiment in a line: SPR, Fab on recombinant human DLL4; standard deviation in parentheses. In general terms: SPR reads the build-up and loss of mass on a sensor chip optically.

The target in experiment [2] is T1, Recombinant Human DLL4 (delta-like …). As to the kind of experiment: SPR, Fab on recombinant human DLL4.
The target of experiment [3] is T2, rHuman Notch-1/Fc Chimera, CF (R&D Systems Cat#3647-TK) (human, UniProt P46531 19-526).
T2 construct: Bought Fc chimera; Fc part of the bought chimera not given
As to the kind of experiment: ECL (MSD Multi-Spot) binding, antigen spotted on plate, Fab at 7.8 nM; blank spot 316.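 Note: blank spot per well as comparator with Hit at signal to blank ratio of 4 or more.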

The target of experiment [4] is T3, rHuman IGF-1 sR (IGF-1 sR), CF (R&D Systems Cat#391-GR) (human, UniProt P08069 31-932).
T3 construct: Bought soluble receptor; also called insulin-like growth factor-1 soluble receptor; IGF-R1
The experiment is described as above.

The target in experiment [5] is T4, rHuman Erythropoietin R/Fc Chimera, CF (R&D Systems Cat#963-ER) (human, UniProt P19235 25-250).
T4 construct: Bought Fc chimera; also called EPO R/Fc; Epo R; Fc part of the bought chimera not given
T4 sequence: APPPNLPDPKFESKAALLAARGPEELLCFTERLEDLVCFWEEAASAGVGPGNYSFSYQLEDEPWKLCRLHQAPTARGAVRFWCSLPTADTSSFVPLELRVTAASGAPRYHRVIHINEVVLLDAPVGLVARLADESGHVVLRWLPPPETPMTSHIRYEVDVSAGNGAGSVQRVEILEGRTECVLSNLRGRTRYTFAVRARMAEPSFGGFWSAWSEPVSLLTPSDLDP
The experiment is described as above.

Experiment [6] has as its target T2, rHuman Notch-1/Fc Chimera, CF (R&D …). The experiment in a line: ECL (MSD Multi-Spot) binding, antigen spotted on plate, Fab at 1000 nM; blank spot 1133.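 Note: blank spot per well as comparator with Hit at signal to blank ratio of 4 or more.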
The target of experiment [7] is T3, rHuman IGF-1 sR (IGF-1 sR), CF (R&D …). The description is as above.
Experiment [8] deals with T4, rHuman Erythropoietin R/Fc Chimera, CF …. Described as above.
Experiment [9] concerns the target T2, rHuman Notch-1/Fc Chimera, CF (R&D …). As to the kind of experiment: ECL (MSD Multi-Spot) binding, antigen spotted on plate, Fab at 125 nM; blank spot 403.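 Note: blank spot per well as comparator with Hit at signal to blank ratio of 4 or more.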
Experiment [10] has as its target T3, rHuman IGF-1 sR (IGF-1 sR), CF (R&D …). The experiment is described as above.
The target of experiment [11] is T4, rHuman Erythropoietin R/Fc Chimera, CF …. The experiment is described as above.
In experiment [12] the target is T2, rHuman Notch-1/Fc Chimera, CF (R&D …). The experiment in a line: ECL (MSD Multi-Spot) binding, antigen spotted on plate, Fab at 15.6 nM; blank spot 294.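 Note: blank spot per well as comparator with Hit at signal to blank ratio of 4 or more.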
The target in experiment [13] is T3, rHuman IGF-1 sR (IGF-1 sR), CF (R&D …). Described as above.
Experiment [14] addresses T4, rHuman Erythropoietin R/Fc Chimera, CF …. Described as above.
For experiment [15], the target named is T2, rHuman Notch-1/Fc Chimera, CF (R&D …). The experiment in a line: ECL (MSD Multi-Spot) binding, antigen spotted on plate, Fab at 62.5 nM; blank spot 268.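 Note: blank spot per well as comparator with Hit at signal to blank ratio of 4 or more.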
The target of experiment [16] is T3, rHuman IGF-1 sR (IGF-1 sR), CF (R&D …). Described as above.
For experiment [17], the target named is T4, rHuman Erythropoietin R/Fc Chimera, CF …. The description is as above.
For experiment [18], the target named is T2, rHuman Notch-1/Fc Chimera, CF (R&D …). The experiment in a line: ECL (MSD Multi-Spot) binding, antigen spotted on plate, Fab at 250 nM; blank spot 590.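 Note: blank spot per well as comparator with Hit at signal to blank ratio of 4 or more.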
The target of experiment [19] is T3, rHuman IGF-1 sR (IGF-1 sR), CF (R&D …). The experiment is described as above.
In experiment [20] the target is T4, rHuman Erythropoietin R/Fc Chimera, CF …. Described as above.
Experiment [21] has as its target T2, rHuman Notch-1/Fc Chimera, CF (R&D …). As to the kind of experiment: ECL (MSD Multi-Spot) binding, antigen spotted on plate, Fab at 31.3 nM; blank spot 250.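 Note: blank spot per well as comparator with Hit at signal to blank ratio of 4 or more.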
The target of experiment [22] is T3, rHuman IGF-1 sR (IGF-1 sR), CF (R&D …). Described as above.
Experiment [23] has as its target T4, rHuman Erythropoietin R/Fc Chimera, CF …. The description is as above.
Experiment [24] concerns the target T2, rHuman Notch-1/Fc Chimera, CF (R&D …). As to the kind of experiment: ECL (MSD Multi-Spot) binding, antigen spotted on plate, Fab at 500 nM; blank spot 680.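 Note: blank spot per well as comparator with Hit at signal to blank ratio of 4 or more.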
Experiment [25] deals with T3, rHuman IGF-1 sR (IGF-1 sR), CF (R&D …). The experiment is described as above.
The target of experiment [26] is T4, rHuman Erythropoietin R/Fc Chimera, CF …. Described as above.
In experiment [27] the target is T5, rHuman Erythropoietin R/Fc Chimera, CF (R&D Systems Cat#963-ER) (human, UniProt P19235 25-250).
T5 construct: Bought protein; also called EPOR; EPO R/Fc; Fc part of the bought chimera not given
T5 sequence: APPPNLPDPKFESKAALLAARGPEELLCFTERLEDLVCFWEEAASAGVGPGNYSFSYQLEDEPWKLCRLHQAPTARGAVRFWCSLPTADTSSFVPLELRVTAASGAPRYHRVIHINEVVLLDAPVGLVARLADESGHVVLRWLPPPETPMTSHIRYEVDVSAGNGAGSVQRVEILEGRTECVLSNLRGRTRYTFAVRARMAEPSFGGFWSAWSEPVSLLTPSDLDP
The experiment in a line: MSD ECL multi-spot assay, antigen spotted on plate, Fab 0.36 uM; blank spot 1948.

Experiment [28] has as its target T6, rHuman HGF R/c-MET/Fc Chimera, CF (R&D Systems Cat#358-MT/CF) (human, UniProt P08581 25-932).
T6 construct: Bought protein; also called HGF R/Fc; hepatocyte growth factor receptor; Fc part of the bought chimera not given
Described as above.

Experiment [29] concerns the target T7, rHuman ErbB2/Fc Chimera, CF (R&D Systems Cat#1129-ER) (human, UniProt P04626 23-652).
T7 construct: Bought protein; also called HER2/neu; human epidermal growth factor 2 receptor; Fc part of the bought chimera not given
The description is as above.

Experiment [30] concerns the target T8, rHuman CD44/Fc Chimera, CF (R&D Systems Cat#3660-CD) (human, UniProt P16070 21-220).
T8 construct: Bought protein; Fc part of the bought chimera not given
The experiment is described as above.

For experiment [31], the target named is T9, rHuman IGF-1 sR (IGF-1 sR), CF (R&D Systems Cat#391-GR) (human, UniProt P08069 31-932).
T9 construct: Bought soluble receptor; also called insulin-like growth factor-1 soluble receptor; IGF-R1
The experiment is described as above.

In experiment [32] the target is T10, rHuman P-Cadherin/Fc Chimera, CF (R&D Systems Cat#861-PC) (human, UniProt P22223 108-654).
T10 construct: Bought protein; also called CDH3; Fc part of the bought chimera not given
Described as above.

B1: Fab VH5-51_IGHD5-18*01>3_IGHJ4*01_G100K_G104T & V3-4_IGLJ1*01 (Fab, V domains shown)
VH: EVQLVQSGAEVKKPGESLKISCKGSGYSFTSYWIGWVRQMPGKGLEWMGIIYPGDSDTRYSPSFQGQVTISADKSISTAYLQWSSLKASDTAMYYCARRKYSYTYDYFDYWGQGTLVTVSS
VL: QTVVTQEPSFSVSPGGTVTLTCGLSSGSVSTSYYPSWYQQTPGQAPRTLIYSTNTRSSGVPDRFSGSILGNKAALTITGAQADDESDYYCVLYMGSGISYVFGTGTKVTVL
notes: Modified anti-DLL4 Fab; lambda Plasmid E)
The term Kd denotes the equilibrium constant for the complex coming apart. A word on the kon: it is the second-order rate constant of association. In general, koff refers to the first-order rate constant of dissociation. In the case of B1, in experiment [1], the Kd is 355 nM and the association rate constant (kon) turned out to be 64500 M⁻¹ s⁻¹. The off-rate (koff) in experiment [2] was 0.023 s⁻¹.

B2: Fab VH1-46_IGHD6-13*01_IGHJ4*01 & B3_IGKJ1*01 (Fab, V domains shown)
VH: QVQLVQSGAEVKKPGASVKVSCKASGYTFTSYYMHWVRQAPGQGLEWMGIINPSGGSTSYAQKFQGRVTMTRDTSTSTVYMELSSLRSEDTAVYYCAREGYSSSWYDYFDYWGQGTLVTVSS
VL: not shown
notes: Tested as a Fab made in E. coli: VH joined to the CH1 of Plasmid A (with Flag and His tags), VL joined to the kappa constant region of Plasmid C; also called VH1-46_IGHD6-13*01_IGH41*01 & B3_IGKJ1*01
For B2, the ECL signal in experiment [3] came to 486; in [4], 353; in experiment [5], 6760; in [6], 2270; in [7], 1670; in [8], 8590. For the same molecule, the ECL signal in [9] was found to be 802; in [10], 654; in [11], 9240; in [12], 418; in [13], 349; in experiment [14], 8360. Besides, the ECL signal was 536 in experiment [15]; 491 in [16]; 7750 in experiment [17]; 1240 in experiment [18]; 993 in experiment [19]; 8540 in experiment [20]. Moreover, the ECL signal in experiment [21] came to 563; in experiment [22], 385; in [23], 7880; in [24], 1980; in [25] it was 1330; in experiment [26], 10300.

B3: Fab VH4-28_IGHD7-27*01_IGHJ1*01 & L2_IGKJ1*01 (Fab, V domains shown)
VH: QVQLQESGPGLVKPSDTLSLTCAVSGYSISSSNWWGWIRQPPGKGLEWIGYIYYSGSTYYNPSLKSRVTMSVDTSKNQFSLKLSSVTAVDTAVYYCARTNWGAEYFQHWGQGTLVTVSS
VL: not shown
Consider B3, for which the ECL signal came out at 19400 in experiment [27]; 2030 in [28]; 2030 in experiment [29]; 2480 in experiment [30]; 1700 in experiment [31]; 2740 in [32].
